Measurements reported in the supplement of paper PMC7125110.
± gives the standard error. Variants at the floor of the assay were thinned out.

B1: glmS ribozyme (parent)
chain: AUAAAAGCGCCAGAACUACAGAAAUGUAGUUGACGAGGAGGAGGUUUAUCGAAUUUUCGGCGGAUGCCUCCAAA

Tests used:
Details in all cases: with glucosamine-6-phosphate
glucosamine-6-phosphate [1] = variants of: B1; experiment: self-cleavage kobs at 40 uM GlcN6P; higher = faster cleavage; RNA array
Outline: (§1)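 Tiles of sequenced MiSeq chips were imaged over ~14 h at 37 °C. On them, barcoded ribozyme variants had been transcribed in situ by E. coli RNA polymerase and were tracked via a hybridised Cy3 probe while glucosamine-6-phosphate (40 μM to 10 mM) in HEPES/KCl/Mg(OAc)2 buffer flowed in. Per-tile medians, normalised to baseline and to non-cleaving reference variants, were fit to one- or two-exponential decays for kobs, and weighted Michaelis–Menten fits gave kcat and KM.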

glucosamine-6-phosphate [2] = variants of: B1; experiment: self-cleavage kobs at 640 uM GlcN6P; higher = faster cleavage; RNA array
Outline: as §1

glucosamine-6-phosphate [3] = variants of: B1; experiment: self-cleavage kobs at 2500 uM GlcN6P; higher = faster cleavage; RNA array
Outline: as §1

glucosamine-6-phosphate [4] = variants of: B1; experiment: self-cleavage kobs at 10000 uM GlcN6P; higher = faster cleavage; RNA array
Outline: as §1

glucosamine-6-phosphate [5] = variants of: B1; experiment: self-cleavage kobs at 160 uM GlcN6P; higher = faster cleavage; RNA array
Outline: as §1

AUAAAAGCGCUAGCACUACAGAAAUGUAGUUGACGAGAAGGAGGUUUAUCGAAUUUUCGGGGGAUGCCUCCAAA [C11U A14C G38A C61G]
self-cleavage kobs at 40 uM GlcN6P (glucosamine-6-phosphate [1]): < 1e-05 s⁻¹

AUAAAAGCGCCAGAACUACAGAAAUGUAGUUGACGAGGCGGCGGUUUAUCGAAUUUUCGGCGGAUGCGUCCAAA [A39C A42C C68G]
self-cleavage kobs at 40 uM GlcN6P (glucosamine-6-phosphate [1]): < 1e-05 s⁻¹

AUAAAAGGGCCAAAACUACAGAAAUGUAGUUGACGAGGAGGAGGUUUAUCGAAUUUUCGGCGGAUGCCUCCAAA [C8G G13A]
self-cleavage kobs at 40 uM GlcN6P (glucosamine-6-phosphate [1]): < 1e-05 s⁻¹ | self-cleavage kobs at 640 uM GlcN6P (glucosamine-6-phosphate [2]): < 1e-05 s⁻¹ | self-cleavage kobs at 2500 uM GlcN6P (glucosamine-6-phosphate [3]): < 1e-05 s⁻¹ | self-cleavage kobs at 10000 uM GlcN6P (glucosamine-6-phosphate [4]): < 1e-05 s⁻¹

AUAAAAGCGCCAGAACUACAGAAAUGUAGUUGACGAUGAGUAGGUUUAUCGAAUUUUCGGCGGACGCCUCCAAA [G37U G41U U65C]
self-cleavage kobs at 40 uM GlcN6P (glucosamine-6-phosphate [1]): < 1e-05 s⁻¹

AUAAAAGCGCCAGAACUACAGAAAUGUAGUAGACGGGGAGGAGGUUUAUCGAAUUUUCGGCGGAUGCCUCCAAA [U31A A36G]
self-cleavage kobs at 40 uM GlcN6P (glucosamine-6-phosphate [1]): < 1e-05 s⁻¹ | self-cleavage kobs at 160 uM GlcN6P (glucosamine-6-phosphate [5]): < 1e-05 s⁻¹ | self-cleavage kobs at 640 uM GlcN6P (glucosamine-6-phosphate [2]): < 1e-05 s⁻¹

AUAAAAGCGUCAGAACUACAGAAAUGUAGUUGACGAGGAGGAAGUUUAUCGAAUUUUCGGCGGAUGCCUGCAAA [C10U G43A C70G]
self-cleavage kobs at 40 uM GlcN6P (glucosamine-6-phosphate [1]): < 1e-05 s⁻¹

AUAAAAGCGCUAGAACUACAGAAAUGUAGUUGACGAAGAGGAGGUUUAUCGAAUUUUCGGCGGAUUCCUCCAAA [C11U G37A G66U]
self-cleavage kobs at 40 uM GlcN6P (glucosamine-6-phosphate [1]): < 1e-05 s⁻¹

AUAAAAGUGCCAGAACUACAGAAAUGUAGUUGACGAGGAGGAGGUUUAUCGAAUUUUCCGCGGAUGCCUCCAAA [C8U G59C]
self-cleavage kobs at 40 uM GlcN6P (glucosamine-6-phosphate [1]): < 1e-05 s⁻¹ | self-cleavage kobs at 640 uM GlcN6P (glucosamine-6-phosphate [2]): < 1e-05 s⁻¹ | self-cleavage kobs at 2500 uM GlcN6P (glucosamine-6-phosphate [3]): < 1e-05 s⁻¹ | self-cleavage kobs at 10000 uM GlcN6P (glucosamine-6-phosphate [4]): < 1e-05 s⁻¹

AUAAAGGCGCCAGACCUACAGAAAUGUAGUUGACAAGGAGGAGGUUUAUCGAAUUUUCGGCGGAUGCCUCCAAA [A6G A15C G35A]
self-cleavage kobs at 40 uM GlcN6P (glucosamine-6-phosphate [1]): < 1e-05 s⁻¹ | self-cleavage kobs at 10000 uM GlcN6P (glucosamine-6-phosphate [4]): < 1e-05 s⁻¹

AUAAAAGCGCCAGAACUACAGAAAUGUAGUUGACGAGGAGAAGGUUUAUCGAAUUUUCGGUGGAUGCAUGAAAA [G41A C61U C68A C70G C71A]
self-cleavage kobs at 40 uM GlcN6P (glucosamine-6-phosphate [1]): < 1e-05 s⁻¹

AUAAAAGCGCCAGAACUACAGAAAUGUAGUUGGCCAGGAGGAGGUUUAUCGAAUUUUCGGCGGAUGCCUGCAAA [A33G G35C C70G]
self-cleavage kobs at 40 uM GlcN6P (glucosamine-6-phosphate [1]): 0.000358 ± 8.4e-05 s⁻¹ | self-cleavage kobs at 10000 uM GlcN6P (glucosamine-6-phosphate [4]): 0.000163 ± 4.5e-05 s⁻¹

AUAAACGCGCCAGAACUACAGAAAUGUAGUGAACGAGGAGUAGGUUUAUCGAAUUUUCGGCGGAUGCCUCCAAA [A6C U31G G32A G41U]
self-cleavage kobs at 40 uM GlcN6P (glucosamine-6-phosphate [1]): < 1e-05 s⁻¹

AUAAAAGCGCCAGAACUACAGAAAUGUAGUUGUCGAGGAGGAGUUUUAUCGAAUUUUCGGCGGAUGCCUCCAAA [A33U G44U]
self-cleavage kobs at 40 uM GlcN6P (glucosamine-6-phosphate [1]): < 1e-05 s⁻¹ | self-cleavage kobs at 160 uM GlcN6P (glucosamine-6-phosphate [5]): < 1e-05 s⁻¹ | self-cleavage kobs at 640 uM GlcN6P (glucosamine-6-phosphate [2]): < 1e-05 s⁻¹ | self-cleavage kobs at 10000 uM GlcN6P (glucosamine-6-phosphate [4]): < 1e-05 s⁻¹

AUAAAAGCGCCAGAACUACAGAAAUGUAGUUGACGAGGAUGAGGUUUAUCGAAUUUUCGGCGGAUGCCUCAAAA [G40U C71A]
self-cleavage kobs at 40 uM GlcN6P (glucosamine-6-phosphate [1]): 0.000671 ± 6.2e-05 s⁻¹ | self-cleavage kobs at 160 uM GlcN6P (glucosamine-6-phosphate [5]): 0.00189 ± 0.00028 s⁻¹ | self-cleavage kobs at 640 uM GlcN6P (glucosamine-6-phosphate [2]): 0.00561 ± 0.00069 s⁻¹ | self-cleavage kobs at 2500 uM GlcN6P (glucosamine-6-phosphate [3]): 0.00906 ± 0.0019 s⁻¹ | self-cleavage kobs at 10000 uM GlcN6P (glucosamine-6-phosphate [4]): 0.0484 ± 0.0079 s⁻¹

AUAAAACCUCCAGAACUACAGAAAUGUAGUUGACGAGGAGGAGGUUUAUCGAAUUUUCGGCGGAUGCCUCCAAA [G7C G9U]
self-cleavage kobs at 40 uM GlcN6P (glucosamine-6-phosphate [1]): < 1e-05 s⁻¹ | self-cleavage kobs at 640 uM GlcN6P (glucosamine-6-phosphate [2]): < 1e-05 s⁻¹ | self-cleavage kobs at 10000 uM GlcN6P (glucosamine-6-phosphate [4]): < 1e-05 s⁻¹

AUAAAAGCUCCAGAACUACAGAAAUGUAGUUGACGAGGAGGAGGUUUAUCGAAUUUUCGGCGGAUGCAUCCAAA [G9U C68A]
self-cleavage kobs at 40 uM GlcN6P (glucosamine-6-phosphate [1]): < 1e-05 s⁻¹ | self-cleavage kobs at 160 uM GlcN6P (glucosamine-6-phosphate [5]): < 1e-05 s⁻¹ | self-cleavage kobs at 2500 uM GlcN6P (glucosamine-6-phosphate [3]): < 1e-05 s⁻¹ | self-cleavage kobs at 10000 uM GlcN6P (glucosamine-6-phosphate [4]): < 1e-05 s⁻¹
